# Measurements taken from paper PMC2120984.
# Read-outs that look alike come from different tables or passages of the source.
# What was measured:
# [1] = target: alpha v integrins of OV10 cells (human (endogenous in OV10)); experiment: binding of protein-coated beads to adherent cells
# [2] = target: alpha v integrins of OV10 cells (human (endogenous in OV10)); experiment: binding of protein-coated beads to adherent cells; remark: listed apart in the source
substance,measurement,setting,value
Vitronectin (from UniProt P04004) (ligand),attachment index (beads bound per 100 cells) (beads bound per 100 cells),[1],373
same,attachment index (beads bound per 100 cells) (beads bound per 100 cells),[2],181
